In data set [1] the target is T1, FASTK∆N1-75 (Homo sapiens, UniProt Q14296 76-549, del1-75).
T1 sequence: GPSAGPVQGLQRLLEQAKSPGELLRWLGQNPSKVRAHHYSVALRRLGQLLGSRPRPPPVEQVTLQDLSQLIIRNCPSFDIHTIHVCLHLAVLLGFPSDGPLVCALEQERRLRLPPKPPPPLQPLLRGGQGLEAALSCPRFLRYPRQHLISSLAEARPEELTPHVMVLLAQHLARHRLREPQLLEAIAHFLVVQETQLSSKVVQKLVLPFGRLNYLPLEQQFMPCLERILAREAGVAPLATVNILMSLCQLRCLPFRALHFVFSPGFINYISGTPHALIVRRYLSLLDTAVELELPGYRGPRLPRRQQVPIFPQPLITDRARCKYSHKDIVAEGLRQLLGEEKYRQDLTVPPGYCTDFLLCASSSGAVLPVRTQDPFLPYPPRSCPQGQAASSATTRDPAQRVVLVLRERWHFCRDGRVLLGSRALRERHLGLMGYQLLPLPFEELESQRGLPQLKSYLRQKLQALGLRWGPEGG
Kind of data set: MST; same as unmutated oligo 10; MST: 1x PBS, 5% glycerol, 1 mM DTT, Tween-20 (0.05% in RNA stock), 20 nM RNA, 22 °C; RNA annealed in 50 mM Tris/HCl pH 7.5, 50 mM KCl (or LiCl), 50 mM NaCl; EMSA: same solutions, on ice; footprinting: 1x Structure Buffer, 37 °C. The conditions noted are these: protein: recombinant; tags: His6-SUMO cleaved; label: Cy5 body (CTP or UTP). Background: In EMSA bound probe runs differently from free probe, usually more slowly.

Data set [2] has as its target T1, FASTK∆N1-75. Put plainly: MST; MST: 1x PBS, 5% glycerol, 1 mM DTT, Tween-20 (0.05% in RNA stock), 20 nM RNA, 22 °C; RNA annealed in 50 mM Tris/HCl pH 7.5, 50 mM KCl (or LiCl), 50 mM NaCl; EMSA: same solutions, on ice; footprinting: 1x Structure Buffer, 37 °C. Conditions: protein: recombinant, tags: His6-SUMO cleaved.
The target of data set [3] is T1, FASTK∆N1-75. Kind of data set: MST; K+ annealed; MST: 1x PBS, 5% glycerol, 1 mM DTT, Tween-20 (0.05% in RNA stock), 20 nM RNA, 22 °C; RNA annealed in 50 mM Tris/HCl pH 7.5, 50 mM KCl (or LiCl), 50 mM NaCl; EMSA: same solutions, on ice; footprinting: 1x Structure Buffer, 37 °C. The conditions noted are these: protein: recombinant, tags: His6-SUMO cleaved, label: Cy5.

Data set [4] addresses T1, FASTK∆N1-75. Kind of data set: MST; 100 mM K+, no Na+; better than AU-rich mutant; MST: 1x PBS, 5% glycerol, 1 mM DTT, Tween-20 (0.05% in RNA stock), 20 nM RNA, 22 °C; RNA annealed in 50 mM Tris/HCl pH 7.5, 50 mM KCl (or LiCl), 50 mM NaCl; EMSA: same solutions, on ice; footprinting: 1x Structure Buffer, 37 °C. Conditions: protein: recombinant; tags: His6-SUMO cleaved; label: Cy5.

Data set [5] addresses T1, FASTK∆N1-75. Put plainly: MST; same as unmutated oligo 5; MST: 1x PBS, 5% glycerol, 1 mM DTT, Tween-20 (0.05% in RNA stock), 20 nM RNA, 22 °C; RNA annealed in 50 mM Tris/HCl pH 7.5, 50 mM KCl (or LiCl), 50 mM NaCl; EMSA: same solutions, on ice; footprinting: 1x Structure Buffer, 37 °C. Conditions: protein: recombinant; tags: His6-SUMO cleaved; label: Cy5 body (CTP or UTP).

In data set [6] the target is T2, FASTK∆N1-75 R249/R251 mutant (Homo sapiens, UniProt Q14296 76-549, R249A;R251A;del1-75).
T2 sequence: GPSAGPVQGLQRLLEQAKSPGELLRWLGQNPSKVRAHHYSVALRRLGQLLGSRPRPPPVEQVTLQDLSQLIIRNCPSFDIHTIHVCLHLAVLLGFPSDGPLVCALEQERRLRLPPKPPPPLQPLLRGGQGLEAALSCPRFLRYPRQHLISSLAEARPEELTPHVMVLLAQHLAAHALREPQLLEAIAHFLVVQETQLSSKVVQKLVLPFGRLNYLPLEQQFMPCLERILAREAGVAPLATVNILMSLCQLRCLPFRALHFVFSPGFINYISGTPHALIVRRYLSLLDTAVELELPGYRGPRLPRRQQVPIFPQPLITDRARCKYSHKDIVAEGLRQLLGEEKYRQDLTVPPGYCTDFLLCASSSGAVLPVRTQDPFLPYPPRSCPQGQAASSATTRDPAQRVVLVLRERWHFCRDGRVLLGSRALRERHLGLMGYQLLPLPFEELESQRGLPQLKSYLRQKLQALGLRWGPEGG
Put plainly: MST; MST: 1x PBS, 5% glycerol, 1 mM DTT, Tween-20 (0.05% in RNA stock), 20 nM RNA, 22 °C; RNA annealed in 50 mM Tris/HCl pH 7.5, 50 mM KCl (or LiCl), 50 mM NaCl; EMSA: same solutions, on ice; footprinting: 1x Structure Buffer, 37 °C. Conditions: protein: recombinant; tags: His6-SUMO cleaved; label: Cy5 body (CTP or UTP); 5' 32P in footprinting; predicted G4.

For orientation: Kd means the constant that tells how readily two partners part at equilibrium.

B1: ND6 oligo 10 G4kill mutant (ssRNA)
RNA: GGAGGAUUGUUGUUUGGAAGGUGGAUGCGGAGGAAAUGUUGUUAGUAAUGAGAAAUCCUGCGAAUAGGCUUCCGG
Turning to B1, the binding result in the data set with FASTK∆N1-75 [1] was “binds”.

B2: ND6 oligo 10 (structured_RNA)
RNA: GGGGGAUUGUUGUUUGGAAGGGGGAUGCGGGGGAAAUGUUGUUAGUAAUGAGAAAUCCUGCGAAUAGGCUUCCGG
As for B2, the Kd with FASTK∆N1-75 [2] (label: Cy5 body (CTP or UTP), predicted G4) was 18.5 nM.
For UUUUCUGUUUUUUC (ssRNA) [U-rich short RNA], the dissociation constant Kd with FASTK∆N1-75 [2] (label: Cy5) is 63.2 nM.
Still for that read-out and setting: in the case of AAAUCUGUAAAAUC (ssRNA) [A-rich short RNA] it was 78.4 nM; in that of GGGUCUGUGGGGUC (ssRNA) [G-rich short RNA (internal loop strand 2)], 2.7 nM.
On to UUAGAGUUAGUGUUAGAGUUAGUG (ssRNA) [TERRA AU-rich mutant], for which the Kd with FASTK∆N1-75 [3] was 6.4 nM.
As to UUAGGGUUAGGGUUAGGGUUAGGG (structured_RNA) [TERRA], in the data set with FASTK∆N1-75 [3] (G4 intramolecular in K+), the Kd is 2.4 nM.
UUACCCUUACCCUUACCCUUACCC (ssRNA) [TERRA C-rich mutant]: in the data set with FASTK∆N1-75 [4], the binding result is listed as “binds”.

B3: ND6 oligo 5 G4kill mutant (ssRNA)
RNA: GAGUGGUCAGAGUUGAUUCGUGAGGAUCCUAUUGGUGCGGAGGCUUUGUAUGAUUAUGUGCGUUGAUUAGUAGUAGUUACUGGUUGAACAUUGUUUGUUGGUGUAUAUAUUGUAAUUGAGAUUGC
Take B3: the binding result with FASTK∆N1-75 [5] is listed as “binds”.

B4: ND6 oligo 5 (structured_RNA)
RNA: GAGGGGUCAGGGUUGAUUCGGGAGGAUCCUAUUGGUGCGGGGGCUUUGUAUGAUUAUGGGCGUUGAUUAGUAGUAGUUACUGGUUGAACAUUGUUUGUUGGUGUAUAUAUUGUAAUUGAGAUUGC
Regarding B4, the Kd with FASTK∆N1-75 [2] (label: Cy5 body (CTP or UTP), 5' 32P in footprinting, predicted G4) is 25.5 nM. For the same molecule, in data set [6], the binding signal was 5 fold decrease vs wild type.
With CCCUCUGUCCCCUC (ssRNA) [C-rich short RNA], the dissociation constant (Kd) with FASTK∆N1-75 [2] (label: Cy5) was 212 nM.

The values are drawn from article PMC12871924, “Human FASTK preferentially binds single‐stranded and G‐rich RNA”.
